Reference: the supplement of paper PMC11865577

Tested on: TO-N3 (biotin conjugate)
Assay: pull-down binding Z-score (relative to library population); higher = stronger binding
Conditions: RNA library: Library-2
Summary of the method: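 To score binding, a beads-only signal was subtracted, barcoded replicate probes were averaged with the highest and lowest dropped, and the value was converted to a Z-score using the library mean and standard deviation. The input was 1 μg of Cy5- or Cy3-end-labelled RNA library, heat-folded in phosphate/NaCl/KCl buffer and mixed for 60 min at 25 °C with streptavidin beads carrying 100 pmol of biotin-conjugated small molecule. Bound RNA was eluted in hot SDS and hybridised to a DNA barcode microarray at 55.5 °C for 20 h.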

Sequence	pull-down binding Z-score
GUGGUGAGACACUUGGUGUCCUUGUCCCUCAUGUGGGCGAAAUACCAGUGGCUUACCGC	0.798
GUGGUUAUACCUACUAAAAAGGCUGGUGGCACUACUGAAAUGCUAGCGAAAGCUUUGAGAAAAGUGCCAACAGACAAUUAUAUAACCAC	-0.353
GUGGUUGACCUACACAGGUGCCAU	-0.612
GUGUAAAAGUGCCUUUUACAU	-0.957
GUGUACCUUCCUUACCCAGAUCCAUCAAGAAUCCUAGGGGCCGGCUGUUUUGUAGAUGAUAUCGUAAAAACAGAUGGUACAC [SHAPE_invivo_SARS-CoV-2_Multi_39_ComplexLevel_1]	0.78
GUGUAUGCUGCUGACCCUGCUAUGCACGCUGCUUCUGGUAAUCUAUUACUAGAUAAACGCACUACGUGCUUUUCAGUAGCUGCAC	0.772
GUGUUAUAACAC	-0.404
GUGUUUAUGAUUACUUAGUUUCUACACAGGAGUUUAGAUAUAUGAAUUCACAGGGACUACUCCCACCCAAGAAUAGCAUAGAUGC	-0.0167
GUUAAAAAUCUGAAUUCUUCUAGAGUUCCUGAUCUUCUGGUCUAAAC	-0.527
GUUAAAAUAUGAC [SHAPE_invivo_SARS-CoV-2_Motif_271]	-0.93
GUUAAAAUGUUUGAUGCUUACGUUAAUACGUUUUCAUCAACUUUUAAC	-1.54
GUUAACUGGUUAUAAGAAACCUGCUUCAAGAGAGCUUAAAGUUAC	-0.0514
GUUAAUGCCUAUAUUAACCUUGACCAGGGCUUUAAC	-0.0902
GUUACGACUAUUGUAUACCUUACAAUAGUGUAAC	0.531
GUUAGUACAACUACUAAC [SHAPE_invivo_SARS-CoV-2_Motif_138]	-1.06
GUUAUAAAUGGAGACAGGUGGUUUCUCAAUCGAUUUACCACAACUCUUAAUGAC	-0.772
GUUAUGUUGAUACACCUAAU [DMSMaPseq_invitro_SARS-CoV-2_Motif_328]	-0.585
GUUCAGAGUUUAUUCUAGUGCGAAUAAUUGCACUUUUGAAUAUGUCUCUCAGC	-0.295
GUUCGGAUGCUCGAACUGCACCUCAUGGUCAUGUUAUGGUUGAGCUGGUAGCAGAACUCGAAGGCAUUCAGUAC [DMSMaPseq_invitro_SARS-CoV-2_Motif_11]	0.002
GUUCGUGUUGUUUUAGAUUUCAUCUAAACGAAC	-1.12
GUUCUAAGUAUUGCUCCAAUAAUGUUCUCAAACAAAAUGGCGAGACUGGGAAAAGGGUAUAUGUUUGAGAGCAAGAGUAUGAAACUUAGAAC [IAV_invivo_PB1_2_Motif_18+IAV_invivo_PB1_2_Motif_18]	1.12
GUUCUCAGUACAGAGAAAUCUCCCUUUUGACAGAACAACCAUUAUGGCAGCAUUCAAUGGGAAUACAGAGGGGAGAACAUCUGACAUGAGGAC [IAV_invivo_NP_5_Motif_22+IAV_invivo_NP_5_Motif_22]	1.12

Sequence	pull-down binding Z-score
GUUCUCUAAACGAAC	-0.364
GUUCUCUAUGAGAAC	0.0284
GUUCUUCUUCGUAAGAAC	-0.728
GUUCUUGAGUGUAAUGUGAAAACUACCGAAGUUGUAGGAGACAUUAUACUUAAACCAGC	0.111
GUUCUUGUAUGUGAGAAC [IAV_invivo_PA_3_Motif_23+IAV_invivo_PA_3_Motif_23]	-0.949
GUUCUUUGAGAAC [IAV_invivo_PA_3_Motif_25+IAV_invivo_PA_3_Motif_25]	0.0597
GUUGAAGAAGUUACAAC	0.365
GUUGAAGUUGUUGAUAAGUACUUUGAUUGUUACGAUGGUGGCUGUAUUAAUGCUAACCAAGUCAUCGUCAACAACCUAGACAAAUCAGCUGGUUUUCCAUUUAAU	0.0753
GUUGACAGGACACGAGUAACUCGUCUAUCUUCUGCAGGCUGCUUACGGUUUCGUCCGUGUUGCAGCCGAUCAUCAGC	0.461
GUUGAUGAGCCUGAAGAACAUGUCCAAAUUCACACAAUCGACGGUUCAUCCGGAGUUGUUAAUCCAGUAAUGGAACCAAUUUAUGAUGAACCGACGACGAC	0.862
GUUGAUUUUUGUGGAAAGGGCUAUCAUCUUAUGUCCUUCCCUCAGUCAGC [SHAPE_invitro_SARS-CoV-2_Motif_447]	-1.18
GUUGCGUCACCAAAUGAAUGCAAC	-1.3
GUUGCUGUACCUACAGGUUAUGUUGAUACACCUAAUAAUACAGAUUUUUCCAGAGUUAGUGCUAAACCACCGCCUGGAGAUCAAU [SHAPE_invitro_SARS-CoV-2_Multi_51_ComplexLevel_1]	0.691
GUUGGAUAAUGAUGCACUCAACAACAUUAUCAAC	-1.35
GUUGUAGACGGUUGUAAUUCAUCAACUUGUAUGAUGUGUUACAAACGUAAUAGAGC [SHAPE_invivo_SARS-CoV-2_Motif_153]	-0.562
GUUGUAGACGGUUGUAAUUCAUCAACUUGUAUGAUGUGUUACAAACGUAAUAGAGCAAC	-0.954
GUUGUCGCUUCCAAGAAAAGGACGAAGAUGACAAU [SHAPE_invitro_SARS-CoV-2_Motif_248]	0.141
GUUGUCUUGAAAACUGGUGAUUUACAACCAUUAGAACAACCUACUAGUGAAGCUGUUGAAGCUCCAUUGGUUGGUACACCAGUUUGUAUUAAC	-0.376
GUUGUCUUUGAUGAAAUUUCAAUGGCCAC [DMSMaPseq_invitro_SARS-CoV-2_Motif_310]	-0.615
GUUGUUACUCACAAUUUUGACUUCACUUUUAGUUUUAGUCCAGAGUACUCAAU	-0.965
GUUUAAGGAAGGUGUAGAGUUUCUUAGAGAC	0.119
GUUUACAACAGUAGAC	-0.136

Sequence	pull-down binding Z-score
GUUUAUGAAAAACUCAAACCCGUCCUUGAUUGGCUUGAAGAGAAGUUUAAGGAAGGUGUAGAGUUUCUUAGAGAC	0.416
GUUUCGGAAGAGAC	-0.448
GUUUCUGCCUUUCCAACAAUUUGGCAGAGAC	-0.868
GUUUGUCUUAGUGGUUUAGAUUCUUUAGACACCUAUCCUUCUUUAGAAACUAUACAAAU	0.0216
GUUUGUGUAUCUACUAGUGGUAGAUGGGUACUUAAC	-0.726
GUUUUAAUUAUGCUUAUUAUCUUUUGGUUCUCACUUGAACUGCAAGAUCAUAAUGAAAC	-0.503
GUUUUCUACAAAGAAAAC	-1.09
GUUUUUCUGUUUGGAACUUUAAUUUUAGCCAUGGCAGAUUCCAACGGUACUAUUACCGUUGAAGAGCUUAAAAAGCUCCUUGAAC	-0.856
GUUUUUGUACACAAUUAAACCGUGCUUUAACUGGAAUAGCUGUUGAACAAGACAAAAAC [DMSMaPseq_invitro_SARS-CoV-2_Motif_424]	0.21
UAAAAUGAAUUAUCAAGUUA [DMSMaPseq_invitro_SARS-CoV-2_Motif_325]	-1.04
UAAACACGCUUGUUAAACAACUUAGCUCCAAUUUUGGUGCAAUUUCAAGUGUUUUA [SHAPE_invitro_SARS-CoV-2_Motif_443]	-0.925
UAAACCACCCAUUAGUUUUCCAUUGUGUGCUAAUGGACAAGUUUUUGGUUUA [SHAPE_invivo_SARS-CoV-2_Motif_310]	-1
UAAAGAACUUUAAGUCAGUUCUUUA	-1.25
UAAAGCCACGUAUAAACCAAAUACCUGGUGUAUACGUUGUCUUUG	-0.75
UAAAGUACUUAAUGAGAAGUGCUCUGCCUAUACAGUUGAACUCGGUACAGAAGUAAAUGAGUUCGCCUGUGUUGUGGCAGAUGCUGUCAUAAAAACUUUG [DMSMaPseq_invitro_SARS-CoV-2_Motif_52]	-0.501
UAAAUAAGGGACACUUUGAUGGACAACAGGGUGAAGUACCAGUUUCUAUCAUUAAUAACACUGUUUACACAAAAGUUGAUGGUGUUGAUGUAGAAUUGUUUG	-0.00789
UAAAUUUUUGGCUUUGUGUGCUGACUCUAUCAUUAUUGGUGGAGCUAAACUUAAAGCCUUGAAUUUA	-0.962
UAACACCAGGAACAAAUACUUCUAACCAGGUUGCUGUUCUUUAUCAGGGUGUUA [SHAPE_invivo_SARS-CoV-2_Motif_440]	-0.633
UAACAGUUACACCGGAAGCCAAUAUGGAUCAAGAAUCCUUUGGUGGUGCAUCGUGUUG	-0.9
UAAGGAAGGAAGUUCUGUUGAAUUAAAACACUUCUUCUUUG [SHAPE_invitro_SARS-CoV-2_Motif_269]	-1.1
UAAGGAGAGUGUUCAGACAUUCUUUAAGCUUG [DMSMaPseq_invitro_SARS-CoV-2_Motif_43]	-0.507
UAAUAACGCUACUAAUGUUGUUAUUA	-1.02
